# From IntAct's records for PubMed 7890747
# B1: Retinoblastoma-associated protein (Homo sapiens), P06400 (parent)
# chain: MPPKTPRKTAATAAAAAAEPPAPPPPPPPEEDPEQDSGPEDLPLVRLEFEETEEPDFTALCQKLKIPDHVRERAWLTWEKVSSVDGVLGGYIQKKKELWGICIFIAAVDLDEMSFTFTELQKNIEISVHKFFNLLKEIDTSTKVDNAMSRLLKKYDVLFALFSKLERTCELIYLTQPSSSISTEINSALVLKVSWITFLLAKGEVLQMEDDLVISFQLMLCVLDYFIKLSPPMLLKEPYKTAVIPINGSPRTPRRGQNRSARIAKQLENDTRIIEVLCKEHECNIDEVKNVYFKNFIPFMNSLGLVTSNGLPEVENLSKRYEEIYLKNKDLDARLFLDHDKTLQTDSIDSFETQRTPRKSNLDEEVNVIPPHTPVRTVMNTIQQLMMILNSASDQPSENLISYFNNCTVNPKESILKRVKDIGYIFKEKFAKAVGQGCVEIGSQRYKLGVRLYYRVMESMLKSEEERLSIQNFSKLLNDNIFHMSLLACALEVVMATYSRSTSQNLDSGTDLSFPWILNVLNLKAFDFYKVIESFIKAEGNLTREMIKHLERCEHRIMESLAWLSDSPLFDLIKQSKDREGPTDHLESACPLNLPLQNNHTAADMYLSPVRSPKKKGSTTRVNSTANAETQATSAFQTQKPLKSTSLSLFYKKVYRLAYLRLNTLCERLLSEHPELEHIIWTLFQHTLQNEYELMRDRHLDQIMMCSMYGICKVKNIDLKFKIIVTAYKDLPHAVQETFKRVLIKEEEYDSIIVFYNSVFMQRLKTNILQYASTRPPTLSPIPHIPRSPYKFPSSPLRIPGGNIYISPLKSPYKISEGLPTPTKMTPRSRILVSIGESFGTSEKFQKINQMVCNSDRVLKRSAEGSNPPKPLKKLRFDIEGSDEADGSKHLPGESKFQQKLAEMTSTRTRMQKQKMNDSMDTSNKEEK
# partner: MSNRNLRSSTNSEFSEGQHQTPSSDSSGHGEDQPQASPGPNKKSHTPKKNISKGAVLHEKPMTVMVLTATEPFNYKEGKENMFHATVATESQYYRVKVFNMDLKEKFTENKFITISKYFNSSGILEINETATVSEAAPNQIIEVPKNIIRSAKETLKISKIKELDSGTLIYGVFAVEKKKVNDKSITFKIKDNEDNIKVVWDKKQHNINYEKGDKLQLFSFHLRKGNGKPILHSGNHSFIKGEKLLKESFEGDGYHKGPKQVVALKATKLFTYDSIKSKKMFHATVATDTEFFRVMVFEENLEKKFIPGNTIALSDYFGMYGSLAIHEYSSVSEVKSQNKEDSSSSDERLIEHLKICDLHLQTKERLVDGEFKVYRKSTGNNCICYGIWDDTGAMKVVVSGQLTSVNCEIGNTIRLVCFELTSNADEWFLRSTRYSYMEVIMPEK
# Variants of: B1
# Details: with ifi2_mouse Ifi202, Q9R002
row,Variant,effect of a mutation on the interaction
1,C706F,decreasing interaction
